6 sequences from the supplement of paper PMC12458215 can be followed below.

The data set has as its system HEK293T. The data set is described as follows: plasma membrane surface immunostaining intensity (anti-HA, deep receptor scanning) (arbitrary fluorescence units); higher = higher plasma membrane expression.

± gives the uncertainty stated by the source.

In the case of “MVFLSGNASDSSNCTQPPAPVNISKAILLGVILGGLILFGVLGNILVILSVACHRHLHSVTHYYIVNLAVADLLLTSTVLPFSAIFEVLGYWAFGRVFCNIWAAVDVLCCTASIMGLCIISIDRYIGVSYPLRYPTIVTQRRGLMALLCVWALSLVISIGPLFGWRQPAPEDETICQINEEPGYVLFSALGSFYLPLAIILVMYCRVYVVAKRESRGLKSGLKTDKSDSEQVTLRIHRKNAPAGGSGMASAKTKTHFSVRLLKFSREKKAAKTLGIVVGCFVLCWLPFFLVMPIGSFFPDFKPSETVFKIVFWLGYLNSCINPIIYPCSSQEFKKAFQNVLRIQCLCRKQSSKHALGYTLHPPSQAVEGQHKDMVRIPVGSRETFYRISKTDGVCEWKFFSSMPRGSARITVSKDQSSCTTARVRSKSFLQVCCCVGPSTPSLDKNHQVPTIKVHTISLSENGEEV [ADRA1A]”, the “plasma membrane surface immunostaining intensity” value (GPCR class: A) turned out to be 2110 ± 600. With “MVGDTLKLLSPLMTRYFFLLFYSTDSSDLNENQHPLDFDEMAFGKVKSGISFLIQTGVGILGNSFLLCFYNLILFTGHKLRPTDLILSQLALANSMVLFFKGIPQTMAAFGLKYLLNDTGCKFVFYYHRVGTRVSLSTICLLNGFQAIKLNPSICRWMEIKIRSPRFIDFCCLLCWAPHVLMNASVLLLVNGPLNSKNSSAKNNYGYCSYKASKRFSSLHAVLYFSPDFMSLGFMVWASGSMVFFLYRHKQQVQHNHSNRLSCRPSQEARATHTIMVLVSSFFVFYSVHSFLTIWTTVVANPGQWIVTNSVLVASCFPARSPFVLIMSDTHISQFCFACRTRKTLFPNLVVMP [VN1R1]”, the “plasma membrane surface immunostaining intensity” value (GPCR class: Vomeronasal) amounted to 140 ± 8.3.

For the sequence “MVLASGNSSSHPVSFILLGIPGLESFQLWIAFPFCATYAVAVVGNITLLHVIRIDHTLHEPMYLFLAMLAITDLVLSSSTQPKMLAIFWFHAHEIQYHACLIQVFFIHAFSSVESGVLMAMALDCYVAICFPLRHSSILTPSVVIKLGTIVMLRGLLWVSPFCFMVSRMPFCQHQAIPQSYCEHMAVLKLVCADTSISRGNGLFVAFSVAGFDMIVIGMSYVMILRAVLQLPSGEARLKAFSTRSSHICVILALYIPALFSFLTYRFGHDVPRVVHILFANLYLLIPPMLNPIIYGVRTKQIGDRVIQGCCGNIP [OR52R1]”, the “plasma membrane surface immunostaining intensity” value (GPCR class: A (Olfactory)) was found to be 173 ± 48. As for “MVLEVSDHQVLNDAEVAALLENFSSSYDYGENESDSCCTSPPCPQDFSLNFDRAFLPALYSLLFLLGLLGNGAVAAVLLSRRTALSSTDTFLLHLAVADTLLVLTLPLWAVDAAVQWVFGSGLCKVAGALFNINFYAGALLLACISFDRYLNIVHATQLYRRGPPARVTLTCLAVWGLCLLFALPDFIFLSAHHDERLNATHCQYNFPQVGRTALRVLQLVAGFLLPLLVMAYCYAHILAVLLVSRGQRRLRAMRLVVVVVVAFALCWTPYHLVVLVDILMDLGALARNCGRESRVDVAKSVTSGLGYMHCCLNPLLYAFVGVKFRERMWMLLLRLGCPNQRGLQRQPSSSRRDSSWSETSEASYSGL [CXCR3]”, the “plasma membrane surface immunostaining intensity” value (GPCR class: A) is 530 ± 49. Consider “MVLNVYCCFFQISDIQTMKINQTILKEFILVGFSVYPHVQTFLFVVFFCLYLLTLAGNLIIMGLTWVDRSLHTPMYLFLSALSFSETCYTLTIVPKMLEDLLAKDRSISVTGCSLQMCFFLGLGGTNCIILTLMGYDRFLAICNPLRYPLLMTNIVCGQLVASACTAGFFISLTETALIFRDSFCRPNLVKHFFCHMLAVIRLSCIDSNHTEFIITLISVSGLLGTLLLIILTDVFIISTVLRIPSAEGKQKAFTTCASHLTVVIIHFGFASIVYLKPEASGDDTLIAVPYTVITPFLSPIIFSLRNKDMKNAFRRMMGNTVALKK [OR10X1]”, for which the “plasma membrane surface immunostaining intensity” value (GPCR class: A (Olfactory)) is 233 ± 96.

For “MVNLRNAVHSFLVHLIGLLVWQSDISVSPVAAIVTDIFNTSDGGRFKFPDGVQNWPALSIVIIIIMTIGGNILVIMAVSMEKKLHNATNYFLMSLAIADMLVGLLVMPLSLLAILYDYVWPLPRYLCPVWISLDVLFSTASIMHLCAISLDRYVAIRNPIEHSRFNSRTKAIMKIAIVWAISIGVSVPIPVIGLRDEEKVFVNNTTCVLNDPNFVLIGSFVAFFIPLTIMVITYCLTIYVLRRQALMLLHGHTEEPPGLSLDFLKCCKRNTAEEENSANPNQDQNARRRKKKERRPRGTMQAINNERKASKVLGIVFFVFLIMWCPFFITNILSVLCEKSCNQKLMEKLLNVFVWIGYVCSGINPLVYTLFNKIYRRAFSNYLRCNYKVEKKPPVRQIPRVAATALSGRELNVNIYRHTNEPVIEKASDNEPGIEMQVENLELPVNPSSVVSERISSV [HTR2C]”, the “plasma membrane surface immunostaining intensity” value (GPCR class: A) was 974 ± 180.
